From paper PMC12257531, “Chaperone-Mediated Regulation of Tau Phase Separation, Fibrillation, and Toxicity” (Journal of the American Chemical Society, 2025)

Target: Tau441 (recombinant full-length Tau protein), monomeric (UniProt P10636-8 1-441)
Test: cell-based or functional assay

Sequence of Tau441 (recombinant full-length Tau protein), monomeric (P10636 other isoform, or with tags, fused parts or gaps): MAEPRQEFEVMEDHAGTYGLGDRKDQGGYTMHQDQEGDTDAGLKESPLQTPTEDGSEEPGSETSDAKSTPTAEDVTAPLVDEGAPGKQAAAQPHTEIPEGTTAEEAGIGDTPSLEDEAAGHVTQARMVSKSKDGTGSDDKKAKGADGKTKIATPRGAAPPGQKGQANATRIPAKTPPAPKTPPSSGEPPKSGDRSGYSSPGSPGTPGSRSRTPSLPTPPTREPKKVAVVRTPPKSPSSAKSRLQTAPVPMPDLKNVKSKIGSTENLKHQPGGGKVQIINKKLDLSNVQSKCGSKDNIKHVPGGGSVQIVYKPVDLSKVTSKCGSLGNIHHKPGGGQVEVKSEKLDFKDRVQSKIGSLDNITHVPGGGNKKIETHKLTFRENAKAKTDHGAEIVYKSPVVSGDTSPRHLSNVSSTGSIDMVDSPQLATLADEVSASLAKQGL

turbidity (absorbance at 350 nm) of 20 uM Tau441 with 8% PEG8000 and sub- to superstoichiometric Bri2 BRICHOS, relative to Tau441 droplets alone: 2 fold
B1: Bri2 BRICHOS domain R221E (residues 113-231 of Bri2), oligomeric fraction (domain or fragment, human)
chain: GSQTIEENIKIFEEEEVEFISVPVPEFADSDPANIVHDFNKKLTAYLDLNLDKCYVIPLNTSIVMPPRNLLELLINIKAGTYLPQSYLIHEHMVITDRIENIDHLGFFIYELCHDKETYKL
